Experimental data published in US20120082682A1 (GlaxoSmithKline, published 2012).
Positions count from the first letter of the chain named. Values belong to the binder of their own block, whether it stands above or below them.

How the values were obtained:
[1] = molecular target: T1, human IL-4 (recombinant E. coli-expressed) (human, UniProt P05112 25-153); test: Biacore T100 SPR, Protein A capture (CM5), human IL4 analyte, 1:1 fit
T1 sequence (looked up): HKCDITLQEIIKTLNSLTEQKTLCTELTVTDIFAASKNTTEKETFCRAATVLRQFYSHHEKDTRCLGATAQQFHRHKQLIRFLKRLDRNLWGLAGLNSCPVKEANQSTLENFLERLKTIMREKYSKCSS
Procedure: Purified mAbs and mAbdAb constructs were tested in a BIAcore assay to determine whether the mutation of position 89 had any effect on the binding of the dAb to IL-4.
(§1) Protein A was immobilised on a CM5 chip by primary amine coupling; this surface was used as a capture surface for the antibody molecules to be tested. […] Regeneration of the anti-Protein A surface was achieved using 50 mM NaOH. The assay was run at 25° C. using HBS-EP as running buffer. The data was fitted to 1:1 model inherent to the Biacore T100 analysis software.

[2] = molecular target: T1, human IL-4 (recombinant E. …); test: Biacore T100 SPR, Protein A capture (C1 chip), human IL4 analyte, 1:1 fit
Procedure: as §1, with “Cl” for “CM5”, “Regeneration” for “Regeneration of”, “Protein” for “anti-Protein”, “with 100” for “achieved using 50”, “Phosphoric acid.” for “NaOH.”

[3] = molecular target: T2, human IL-13 (recombinant E. coli-expressed) (human, UniProt P35225 35-146); test: cell-based or functional assay
[4] = molecular target: T2, human IL-13 (recombinant E. …); test: cell-based or functional assay; remark: listed apart in the source
[5] = molecular target: T2, human IL-13 (recombinant E. …); test: Biacore T100 SPR, mAb captured on anti-human IgG, IL13 analyte
Procedure: (§2) Table 1 details the overall affinities (equilibrium dissociation constant KD) for the selected constructs from the ProteOn screen and the T100 run
(§3) In light of this, mutations at this residue that were not present in the initial screen were tested using the ProteOn using the same method as described earlier and again using antibodies direct from tissue culture supernatants.

[6] = molecular target: T2, human IL-13 (recombinant E. …); test: ProteOn XPR36 SPR, mAb captured on anti-human IgG, IL13 analyte
Procedure: (§4) The initial screen of CDRH3 mutants was carried out on the ProteOn XPR36 (Biorad). […] 3M MgCl₂ was used to regenerate the capture surface, removing the bound CDRH3 mutant antibodies ready for another cycle of capture and analyte injection. The data was fitted to the 1:1 model using the software inherent to the machine.

[7] = molecular target: T2, human IL-13 (recombinant E. …); test: Biacore T100 SPR, mAb captured on anti-human IgG, IL13 analyte, 1:1 fit
Text: as §2

[8] = molecular target: T2, human IL-13 (recombinant E. …); test: Biacore T100 SPR, purified mAb captured on anti-human IgG, IL13 analyte, 1:1 fit
Text: as §2

[9] = molecular target: T2, human IL-13 (recombinant E. …); test: as above; remark: listed apart in the source
Text: as §2

[10] = molecular target: T2, human IL-13 (recombinant E. …); test: ProteOn XPR36 SPR, purified mAb captured on anti-human IgG, IL13 analyte, 1:1 fit; range over several runs
Procedure: as §4

[11] = molecular target: T2, human IL-13 (recombinant E. …); test: ProteOn XPR36 SPR, mAb (supernatant) captured on anti-human IgG, IL13 analyte
Procedure: as §4, §3

[12] = molecular target: T2, human IL-13 (recombinant E. …); test: Biacore T100 SPR, mAb (supernatant) captured on anti-human IgG, IL13 analyte, 1:1 fit
Text: as §2

[13] = molecular target: T1, human IL-4 (recombinant E. …); test: direct binding ELISA, plate coated with 5 µg/ml human IL-4, anti-human kappa light chain-HRP detection, absorbance at 490 nm
Procedure: An ELISA was performed as described in example 4, coating 96-well high binding plates with 50 μl/well of recombinant E. coli-expressed human IL-4 at 5 μg/ml and incubated at +4° C. overnight.

T2 sequence (P35225 other isoform, or with tags, fused parts or gaps limits assumed): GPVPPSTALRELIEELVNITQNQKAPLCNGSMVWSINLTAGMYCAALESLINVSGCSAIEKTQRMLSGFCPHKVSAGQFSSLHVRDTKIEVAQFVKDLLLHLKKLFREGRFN

Kd [1]: 0.01 nM
Kd [2]: 0.018 nM
B1: BPC2223 (bispecific antibody, human IgG1, kappa)
heavy: not shown
light: DIVMTQSPLSLPVTPGEPASISCRSSQNIVHINGNTYLEWYLQKPGQSPRLLIYKISDRFSGVPDRFSGSGSGTDFTLKISRVEADDVGIYYCFQGSHVPWTFGQGTKLEIKRTVAAPSVFIFPPSDEQLKSGTASVVCLLNNFYPREAKVQWKVDNALQSGNSQESVTEQDSKDSTYSLSSTLTLSKADYEKHKVYACEVTHQGLSSPVTKSFNRGEC
notes: mAbdAb with the original CDRH3 and the unmutated DOM9-155-154 dAb

ND50 (nM), TF-1 cell proliferation bioassay [3]: 9.77 nM
Mean ND50 value (nM), TF-1 cell proliferation bioassay [4]: 5.01 nM
Kd [5]: 0.346 nM
Kd [6]: 0.39 to 0.46 nM
Kd [7]: 0.36 nM
koff [7]: 0.000456 s⁻¹
kon [7]: 1.27e+06 M⁻¹ s⁻¹
Kd [8]: 0.366 nM
Kd [9]: 0.326 nM
koff [9]: 0.000368 s⁻¹
kon [9]: 1.13e+06 M⁻¹ s⁻¹
Kd [10]: 0.45 to 0.6 nM
B2: A1L1 (antibody, human IgG1, kappa, V domains shown)
VH: QVQLVQSGAEVKKPGSSVKVSCKASGFYIKDTYMHWVRQAPGQGLEWMGTIDPANGNTKYVPKFQGRVTITADESTSTAYMELSSLRSEDTAVYYCARSIYDDYHYDDYYAMDYWGQGTLVTVSS
VL: DIVMTQSPLSLPVTPGEPASISCRSSQNIVHINGNTYLEWYLQKPGQSPRLLIYKISDRFSGVPDRFSGSGSGTDFTLKISRVEADDVGIYYCFQGSHVPWTFGQGTKLEIKR
notes: Humanised version of murine 6A1, human IgG1 kappa; also called parental; 586 (mAb)

Kd [5]: 0.025 nM
Kd [11]: 0.166 nM
Kd [9]: 0.027 nM
koff [9]: 2.12e-05 s⁻¹
kon [9]: 776000 M⁻¹ s⁻¹
Kd [12]: 0.034 nM
koff [12]: 3.45e-05 s⁻¹
kon [12]: 1.02e+06 M⁻¹ s⁻¹
binding result [13]: no binding (tested: 10 µg/ml)
B3: A1Y100B ValL1 (antibody, human IgG1, kappa, V domains shown)
VH: B2 VH with Y106V
VL: B2 VL
notes: CDRH3 variant of A1L1; also called A1Y100BVAL1; 829 (mAb)
